{"source": "the DeepSol protein solubility set"}
{"test": "soluble on expression in E. coli; label from the status in PepcDB or PDB records"}
{"sequence": "KILLKTSENGLDLEKPYYQAVIRRWQNKITDADTRRETVSAVSPKIILNDAPKWAVMLETEWQDGEWFEGRLAQEWLDKGVATNREQVAALETELKQKPAQLLIGVRAQTVPDRGVLRQIVRLSEAAQGGAVVQLLAEQGLSDDLSEKLEHWRNALAECGAAWLEPDRAAQEGRLKDQ", "soluble on expression in E. coli": "not soluble"}
{"sequence": "KMLDEKFYSKLLGEELDLIICLPPDFSPLYKYPLFIVQDGKDYFQFGKLARHSEELAVNEQIQKAIFIGIPYKTVMDRREKYHPDGEQNEAYIRFLAFELVPYLEERFPSFQMPTSRFL", "soluble on expression in E. coli": "not soluble"}
{"sequence": "KMNRKPTTKIISICLKKATGHVAEALGVEKATEVIVIERLRSLDNMPAIFEIDYFRKEDQFMLDLELTDTSLLDILRQYRGVIASYFDNIIEIALADEKLAEALAISEEEALVKINQTVVDNDNQILYFNEQYILSESYKVAIRSYNK", "soluble on expression in E. coli": "soluble"}
{"sequence": "KMPISAGVTVERKLNDYLGIETGLLYSNLRSEGQHLHYLGIPLKANITLMDTKKIDLYATVGGVADKCIAGAPDNSFKEEPIQLAVTAGIGITYKINDRLAVFAEPG", "soluble on expression in E. coli": "not soluble"}
{"sequence": "KSVVIGKDALIGWHGGANQSDEMWDQSVPSQYEKQFYRYLTRLRIKEAEFYNKVGVDPNITVYGHTRTNTCQRSTLANGWYYTESDMRHMGIKNLTVQGELLNTLNYNNSEINSCLMPQIFN", "soluble on expression in E. coli": "not soluble"}
{"sequence": "KTRPYMEEVLYVWKLKQLHNKIFRKLKSIKAAASNDDVKALTTLKFYYTTQRQVFELDNNTLTMSSVNKELEAIDQIEVDKSLHLDIASFEEGWIDTY", "soluble on expression in E. coli": "soluble"}
{"sequence": "KTSDANETEDHLESLICKVGEKSACSLESNLEGLAGVLEADLPNYKSKILRLLCTVARLLPEKLTIYTTLVGLLNARNYNFGGEFVEAMIRQLKESLKANNYNEAVYLVRFLSDLVNCHVIAAPSMVAMFENFVSVTQEEDVPQVRRDWYVYAFLSSLPWVGKELYEKKDAEMDRIFANTESYLKRRQKTHVPMLQVWTADKPHPQEEYLDCLWAQIQKLKKDRWQERHILRPYLAFDSILCEALQHNLPPFTPPPHTEDSVYPMPRVIFRMFDYTDDPEGPVMPGSHSVERFVIEENLHCIIKSHWKERKTCAAQLVSYPGKNKIPLNYHIVEVIFAELFQLPAPPHIDVMYTTLLIELCKLQPGSLPQVLAQATEMLYMRLDTMNTTCVDRFINWFSHHLSNFQFRWSWEDWSDCLSQDPESPKPKFVREVLEKCMRLSYHQRILDIVPPTFSALCPSNPTCIYKYGDESSNSLPGHSVALCLAVAFKSKATNDEIFSILKDVPNPNQDDDDDEGFSFNPLKIEVFVQTLLHLAAKSFSHSFSALAKFHEVFKTLAESDEGKLHVLRVMFEVWRNHPQMIAVLVDKMIRTQIVDCAAVANWIFSSELSRDFTRLFVWEILHSTIRKMNKHVGAQSEQKNLFLVIFQRFIMILTEHLVRCETDGTSVLTPWYKNCIERLQQIFLQHHQIIQQYMVTLENLLFTAELDPHILAVFQQFCALQA", "soluble on expression in E. coli": "soluble"}
{"sequence": "KTVINVVLQEDTQILDEVVVTALGLKREQKALGYAVTEVKGDDLKAANTISPVAALQGKVAGVEIRQSDGGMFGATKIQIRGASTLKGNNQPIYVIDGVILDNSTSGNTTMDWDAGNNNANDYGNELKNLNPDDFETVSVLKGAAATALYGSRGLNGAVVITTKSGKG", "soluble on expression in E. coli": "not soluble"}
{"sequence": "KTVTPEEKKLVAEKHVDELVQKALVALEEMRKLDQEQVDYIVAKASVAALDAHGELALHAFEETGRGVFEDKATKNLFACEHVVNNMRHTKTVGVIEEDDVTGLTLIAEPVGVVCGITPTTNPTSTAIFKSLISLKTRNPIVFAFHPSAQESSAHAARIVRDAAIAAGAPENCVQWITQPSMEATSALMNHEGVATILATGGNAMVKAAYSCGKPALGVGAGNVPAYVEKSANIRQAAHDIVMSKSFDNGMVCASE", "soluble on expression in E. coli": "not soluble"}
{"sequence": "KTYGPLKNLPHLEKEQLSQSLWRIADELGPIFRFDFPGVSSVFVSGHNLVAEVCDEKRFDKNLGKGLQKVREFGGDGLFTSWTHEPNWQKAHRILLPSFSQKAMKGYHSMMLDIATQLIQKWSRLNPNEEIDVADDMTRLTLDTIGLCGFNYRFNSFYRDSQHPFITSMLRALKEAMNQSKRLGLQDKMMVKTKLQFQKDIEVMNSLVDRMIAERKANPDENIKDLLSLMLYAKDPVTGETLDDENIRYQIITFLIAGHETTSGLLSFAIYCLLTHPEKLKKAQEEADRVLTDDTPEYKQIQQLKYIRMVLNETLRLYPTAPAFSLYAKEDTVLGGEYPISKGQPVTVLIPKLHRDQNAWGPDAEDFRPERFEDPSSIPHHAYKPFGNGQRACIGMQFALQEATMVLGLVLKHFELINHTGYELKIKEALTIKPDDFKITVKPRKTAAINVQRKEQADIKAETKPKETKPKHGTPLLVLFGSNLGTAEGIAGELAAQGRQMGFTAETAPLDDYIGKLPEEGAVVIVTASYNGAPPDNAAGFVEWLKELEEGQLKGVSYAVFGCGNRSWASTYQRIPRLIDDMMKAKGASRLTAIGEGDAADDFESHRESWENRFWKETMDAFDINEIAQKEDRPSLSITFLSEATETPVAKAYGAFEGIVLENRELQTAASTRSTRHIELEIPAGKTYKEGDHIGILPKNSRELVQRVLSRFGLQSNHVIKVSGSAHMAHLPMDRPIKVVDLLSSYVELQEPASRLQLRELASYTVCPPHQKELEQLVSDDGIYKEQVLAKRLTMLDFLEDYPACEMPFERFLALLPSLKPRYYSISSSPKVHANIVSMTVGVVKASAWSGRGEYRGVASNYLAELNTGDAAACFIRTPQSGFQMPNDPETPMIMVGPGTGIAPFRGFIQARSVLKKEGSTLGEALLYFGCRRPDHDDLYREELDQAEQDGLVTIRRCYSRVENEPKGYVQHLLKQDTQKLMTLIEKGAHIYVCGDGSQMAPDVERTLRLAYEAEKAASQEESAVWLQKLQDQRRYVKDVW", "soluble on expression in E. coli": "not soluble"}
{"sequence": "KVDKKTYKNLIVELQQRMREIQFALYERKIPLVLVFEGMDAAGKGGNIKRIREKLDPTGYEVNGISAPTDVELKHHYLWRFAKKMPKSGHIEIFDRSWYGRVLVERVEGFASQNEWQRASDEINQFEKMWTDEGTIILKFFLCLDKDEQLKRFKDRENNPDKQWKITEEDWRNREKWDEYLEASHDMIESTNTSYAPWYIVPADHKKTSRIEVLKTIIRKCEEVLWGVKTY", "soluble on expression in E. coli": "not soluble"}
{"sequence": "KVISPTYQASTQVLVHESDGEENSNLSDIQRNLQYSSTFQSIMKSTALMEEVKAELHLSESASSLKGKVVTSSENESEIINVAVQDHDPAKAAEIANTLVNKFEKEVDERMNVQGVHILSEAKASESPMIKPARLRNM", "soluble on expression in E. coli": "not soluble"}
{"sequence": "KYQLMANDPVQYKALGKMLGSMGRSDPNEIAPLYFSELMAALKKCATRRTHTNVLQHLCGYLKQTISAEDKQEIQEVIGQYHQGIVPLIVPLTLLKHHFRQHPDPYVALQVYMQPHP", "soluble on expression in E. coli": "not soluble"}
{"sequence": "LDQILRATVEEVRAFLGTDRVKVYRFDPEGHGTVVAEARGGERLPSLLGLTFPAGDIPEEARRLFRLAQVRVIVDVEAQSRSISQPESWGLSARVPLGEPLQRPVDPCHVHYLKSMGVASSLVVPLMHHQELWGLLVSHHAEPRPYSQEELQVVQLLADQVSIAIAQAELSL", "soluble on expression in E. coli": "soluble"}
{"sequence": "LEANEGSKTLQRNRKMAMGRKKFNMDPKKGIQFLVENELLQNTPEEIARFLYKGEGLNKTAIGDYLGEREELNLAVLHAFVDLHEFTDLNLVQALRQFLWSFRLPGEAQKIDRMMEAFAQRYCLCNPGVFQSTDTCYVLSYSVIMLNTDLHNPNVRDKMGLERFVAMNRGINEGGDLPEELLRNLYDSIRNEPFKIPEDDGND", "soluble on expression in E. coli": "soluble"}
{"sequence": "LEILRKNRINEPCIKLNTHSIANKIYATENYIIGIPTDHPDEISDAFTKSVAALLAKSNGIRTPELICFDDSYTIKALDKKLHKIGKAEDGACNLILDMLRLLRLAKDLF", "soluble on expression in E. coli": "not soluble"}
{"sequence": "LERRWRRRREAGAGAEAAAGSARPLGRQAAAARGSSPEAGAAAMAESIIIRVQSPDGVKRITATKRETAATFLKKVAKEFGFQNNGFSVYINRNKTGEITASSNKSLNLLKIKHGDLLFLFPSSLAGPSSEMETSVPPGFKVFGAPNVVEDEIDQYLSKQDGKIYRSRDPQLCRHGPLGKCVHCVPLEPFDEDYLNHLEPPVKHMSFHAYIRKLTGGADKGKFVALENISCKIKSGCEGHLPWPNGICTKCQPSAITLNRQKYRHVDNIMFENHTVADRFLDFWRKTGNQHFGYLYGRYTEHKDIPLGIRAEVAAIYEPPQIGTQNSLELLEDPKAEVVDEIAAKLGLRKVGWIFTDLVSEDTRKGTVRYSRNKDTYFLSSEECITAGDFQNKHPNMCRLSPDGHFGSKFVTAVATGGPDNQVHFEGYQVSNQCMALVRDECLLPCKDAPELGYAKESSSEQYVPDVFYKDVDKFGNEITQLARPLPVEYLIIDITTTFPKDPVYTFSISQNPFPIENRDVLGETQDFHSLATYLSQNTSSVFLDTISDFHLLLFLVTNEVMPLQDSISLLLEAVRTRNEELAQTWKRSEQWATIEQLCSEYPHPLPRHPVAGAGEQPTLHSSPLPVVPWIPHPAASWQVPSAMQRVETRPPCQARGRLR", "soluble on expression in E. coli": "soluble"}
{"sequence": "LGLWPVHRLSEEARRISPRQLSQRLQLSPLPAELRELVGAFNGALDRLEQAYVRLESFNADVAHELRTPLTNLIGQTQVALSRERSGEHYEEVLQSNLEELERLRAIVNDMLFLARADQGRLACEREETSLAGEIATTVDFLEVIFDEAGVGIEVRGEARALVERALFQRAVTNLLYNAAQHTAAGGTLRVGVERRGDEVRVAVSNPGVPIADEHRRHLFERFYRVDAARSNSEANHGLGLSIVKAVASMHGGSVFVDSADGWNTFGFTVLSPERRGPGDR", "soluble on expression in E. coli": "not soluble"}
{"sequence": "LGSMESTQQMAVSIINSSFEAAVVAATSALENMGIEYDYQDIYSRVKNKFDFVMDDSGVKNNPIGKAITIDQALNNKFGSAIRNRNWLADTSRPAKLDEDVNKLRMMLSSKGIDQKMRVLNACFSVKRIPGKSSSIIKCTKLMRDKLERGEVEVDDSFVDEKME", "soluble on expression in E. coli": "soluble"}
{"sequence": "LKPHIAVAISGSIYNEAVIKEAFHIAQKEHAKFTAIYIDVFEKNRQYKDSQKQVHQHLMLAKSLGAKVKVVYSQTVALGLDEWCKNQDVTKLIIGQHIRNKWRDFFNTPLIDHLMSFEHS", "soluble on expression in E. coli": "not soluble"}
{"sequence": "LKSSRFHEKILCDIGGVPMFVATARRVSSVDEVCIALDDEKVLSIAKEYGLNAVLTSKDHESGTDRINEACKKLALKDDEIIINVQADEPFIECENLLKFKEFASFCLDKKAFMASCYKKITQEEAMDPNLVKVLCDKEGYALYFSRAKIPYERENYEESFKGHLGIYAYSVKALREFCSLSSSALERAEKLEQLRAIENGKKIKMLEISTTSMGIDTKEDYERALKIYLEK", "soluble on expression in E. coli": "not soluble"}
{"sequence": "LKVLKRFDIETDYGSAIIADTITGRIEYTVATGGCIFPEVSRTIQTLENMGASVFIASGDSRKFIERLGNIVGVQNKCLMPEAHHKLKRDLILNLKQDGYTVIMVGDASNDILAMEESDLSVITLQNGNVSKKALETAQIKIENISEI", "soluble on expression in E. coli": "not soluble"}
{"sequence": "LLERVSAEAVTTTLHQVTRERMEDRCRGEYERSFLREFHKWIERVVGWLGKVFLQDGPARPASPEAGNTLRRWRCHVQRFFYRIYASLRIEELFSIVRDFPDSRPAIEDLKYCLERTDQRQQLLVSLKAALETRLLHPGVNTCDIITLYISAIKALRVLDPSMVILEVACEPIRRYLRTREDTVRQIVAGLTGDSDGTGDLAVELSKTDPASLETGQDSEDDSGEPEDWVPDPVDADPGKSSSKRRSSDIISLLVSIYGSKDLFINEYRSLLADRLLHQFSFSPEREIRNVELLKLRFGEAPMHFCEVMLKDMADSRRINANIREEDEKRPAEEQPPFGVYAVILSSEFWPPFKDEKLEVPEDIRAALEAYCKKYEQLKAMRTLSWKHTLGLVTMDVELADRTLSVAVTPVQAVILLYFQDQASWTLEELSKAVKMPVALLRRRMSVWLQQGVLREEPPGTFSVIEEERPQDRDNMVLIDSDDESDSGMASQADQKEEELLLFWTYIQAMLTNLESLSLDRIYNMLRMFVVTGPALAEIDLQELQGYLQKKVRDQQLVYSAGVYRLPKNCS", "soluble on expression in E. coli": "soluble"}
